# Biological target: Vδ1 γδ T cell receptor on skin-derived γδ T cells (human)
# Experiment: cell-based or functional assay
T cell degranulation (EC50 µg/ml - 3 donors),Binder,Killing assay (EC50 µg/ml - 2 or 3 donors)
0.002 µg/mL,"1245_P02_G04 (IgG1, made in HEK) (antibody, V domains shown) VH: QVQLQQSGPGLVKPSQTLSLTCAISGDSVSSKSAAWNWIRQSPSRGLEWLGRTYYRSKWSTDYAASVKSRITINPDTSKNQLSLQLNSVTPEDTAVYYCARTWSGYVDVWGQGTLVTVSS VL: DIQMTQSPPALSASVGDRVTITCRASQDINDWLAWYQHKPGKAPKLLIYDASSLESGVPSRFSGSGSGTEFTLTISSLQPDDFATYYCQQSYSTPQVTFGQGTRLEIK",0.1 µg/mL
0.001 µg/mL,"1245_P01_G06 (IgG1) (antibody, V domains shown) VH: QVQLVESGGGLVKPGGSLRLSCAASGFTFSDYYMSWIRQAPGKGLEWVSYISSSGSTIYYADSVKGRFTISRDNAKNSLYLQMNSLRAEDTAVYYCARHSWNDAFDVWGQGTLVTVSS VL: not shown",–

# Continued, binder first:
Binder,T cell degranulation (EC50 µg/ml - 3 donors),Killing assay (EC50 µg/ml - 2 or 3 donors)
"1245_P01_E07 (IgG1) (antibody, V domains shown) VH: QVQLVESGGGLVKPGGSLRLSCAASGFTFSDYYMSWIRQAPGKGLEWVSYISSSGSTIYYADSVKGRFTISRDNAKNSLYLQMNSLRAEDTAVYYCARVDYADAFDIWGQGTLVTVSS VL: DIQMTQSPSSLSASVGDRVTIACRAGQSIGTYLNWYQQKPGKAPKLLIYVASSLQSGVPSRFSGSGSGTEFTLTISSLQPEDFATYYCQQSYSTLLTFGRGTKVEIK",–,0.06 µg/mL
"1252_P01_C08 (IgG1) (antibody, V domains shown) VH: EVQLLESGGGLVQPGRSLRLSCAASGFTVSSNYMSWVRQAPGKGLEWVSVIYSGGSTYYADSVKGRFTISRDNSKNTLYLQMNSLRAEDTAVYYCASPIELGAFDIWGQGTLVTVSS VL: SSYELTQPPSVSVAPGKTARITCGGNNIGSQSVHWYQQKPGQAPMLVIYYDSDRPSGIPERFSGSNSGNTATLTISRVEAGDEADYYCQVWDSSSDHVVFGGGTKLTVL",–,0.02 µg/mL
"1139_P01_E04 (IgG1) (antibody, V domains shown) VH: QVQLQQSGPGLVKPSQTLSLTCAISGDSVSSNSAAWNWIRQSPSRGLEWLGRTYYRSKWYNDYAVSVRSRITINPDTSKNQFSLQLNSVTPEDTAVYYCARSWNDAFDIWGQGTTVTVSS VL: DIVMTQSPSTLSASIGDRVTITCRAGQSISTWLAWYQQKPGKAPKLLIYDASSLESGVPLRFSGSGSGTDFTLTISSLQPEDFATYYCQQSYSTPLTFGGGTKVEIK",0.005 µg/mL,–
"1245_P01_G09 (IgG1) (antibody, V domains shown) VH: QVQLQQSGPGLVKPSQTLSLTCAISGDSVSSNSAAWNWIRQSPSRGLEWLGRTYYGSKWYNEYALSVKSRIIINPDTSKNQFSLQLNSVTPEDTAVYYCARDYYYSMDVWGQGTLVTVSS VL: DIVMTQSPSTLSASIGDRVTITCRAGQSISTWLAWYQQKPGKAPKLLIYDASSLESGVPLRFSGSGSGTEFTLAISSLQPDDFATYYCQQSYSTPVTFGQGTKVEIK",0.001 µg/mL,–
